This assay has as its system dopaminergic (TH^+) neurons in midbrain cultures. Put plainly: MPP+ intoxication model: DA (TH+) cell survival in midbrain cultures. The assay is classed as cell-based, Wistar rat. The protocol: Animals were treated in accordance with the Guide for the Care and Use of Laboratory Animals (National Research Council, 1996), European Directive 86/609, and the guidelines of the local institutional animal care and use committee. Cultures were prepared from the ventral mesencephalon of gestational age 15.5 Wistar rat embryos (Janvier Breeding Center, Le Genest St Isle, France). Dissociated cells in suspension obtained by mechanical trituration of midbrain tissue pieces were seeded at a density of 1.2-1.5×10^5 cells/cm^2 onto tissue culture supports precoated with 1 mg/mL polyethylenimine diluted in borate buffer pH 8.3 as described (Michel et al., 1997. J Neurochem. 69(4):1499-507). The cultures were then maintained in N5 medium supplemented with 5 mM glucose, 5 % horse serum, and 0.5 % fetal calf serum, except for the first 3 DIV, when the concentration of fetal calf serum was 2.5% to favor initial maturation of the cultures (Guerreiro et al., 2008. Mol Pharmacol. 74(4):980-9). They were fed daily by replacing 70% of the medium. Routinely, mesencephalic cultures were established on Nunc 24-well culture plates (Thermofischer Scientific, Rochester, NY). Note that these cultures contain tyrosine hydroxylase (TH)^+ neurons that were exclusively dopaminergic (Traver et al., 2006. Mol Pharmacol. 70(1):30-40). […]

B1: murine sCD31: murine soluble CD31 (extracellular domain of CD31) having SEQ ID NO: 18, used in Example 1 (protein, listed as Mus musculus)
chain: MLLALGLTLVLYASLQAEENSFTINSIHMESLPSWEVMNGQQLTLECLVDISTTSKSRSQHRVLFYKDDAMVYNVTSREHTESYVIPQARVFHSGKYKCTVMLNNKEKTTIEYEVKVHGVSKPKVTLDKKEVTEGGVVTVNCSLQEEKPPIFFKIEKLEVGTKFVKRRIDKTSNENFVLMEFPIEAQDHVLVFRCQAGILSGFKLQESEPIRSEYVTVQESFSTPKFEIKPPGMIIEGDQLHIRCIVQVTHLVQEFTEIIIQKDKAIVATSKQSSEAVYSVMAMVEYSGHYTCKVESNRISKASSIMVNITELFPKPKLEFSSSRLDQGELLDLSCSVSGTPVANFTIQKEETVLSQYQNFSKIAEESDSGEYSCTAGIGKVVKRSGLVPIQVCEMLSKPSIFHDAKSEIIKGHAIGISCQSENGTAPITYHLMKAKSDFQTLEVTSNDPATFTDKPTRDMEYQCRADNCHSHPAVFSEILRVRVIAPVDEVVISILSSNEVQSGSEMVLRCSVKEGTSPITFQFYKEKEDRPFHQAVVNDTQAFWHNKQASKKQEGQYYCTASNRASSMRTSPRSSTLAVRVFL
modifications: Murine sCD31
B1: the “EC50 of prevention of MPP^+-induced DA cell loss” value (3 µM MPP^+ between 5 and 7 DIV) is reported as 36 ng/mL. Further, the “neuroprotective effect against MPP^+-induced DA cell death” value (MPP^+ 3 µM between 5 and 7 DIV, HB7 1 µg/mL) was “neuroprotective”.

For the origin of these results see US20230357354A1, “CD38-BINDING CD31 PEPTIDES AND USES THEREOF” (ENCEFA, priority 2020, published 2023).
